Source: PMC6380343, “Interactions and activities of factors involved in the late stages of human 18S rRNA maturation” (RNA Biology, 2019)

T1: His-tagged NOB1 (human, UniProt Q9ULX3 1-412)
T1 construct: also called His-NOB1; source: E. coli BL21 Codon Plus, purified (Ni-NTA, desalted); not shown: His6, N-terminal, kept
T1 sequence (looked up): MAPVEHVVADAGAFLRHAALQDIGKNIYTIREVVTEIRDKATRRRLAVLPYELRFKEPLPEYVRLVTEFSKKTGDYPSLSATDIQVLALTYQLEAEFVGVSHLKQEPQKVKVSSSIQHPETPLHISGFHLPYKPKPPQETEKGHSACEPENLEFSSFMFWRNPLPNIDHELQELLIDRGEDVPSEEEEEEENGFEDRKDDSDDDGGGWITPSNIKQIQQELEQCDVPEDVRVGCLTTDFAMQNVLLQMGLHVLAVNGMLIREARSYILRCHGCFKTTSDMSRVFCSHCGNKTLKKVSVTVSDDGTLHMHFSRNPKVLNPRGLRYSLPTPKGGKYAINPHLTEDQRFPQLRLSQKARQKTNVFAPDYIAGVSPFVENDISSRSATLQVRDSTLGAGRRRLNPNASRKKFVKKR

B1: GST-tagged PNO1 (natural protein)
chain: not shown
notes: also called GST-PNO1; source: E. coli BL21 Codon Plus, purified (glutathione sepharose, desalted); not shown: GST, N-terminal, kept
B2: His-tagged DIM1 (natural protein, human, UniProt Q9UNQ2 1-313, looked up)
chain: MPKVKSGAIGRRRGRQEQRRELKSAGGLMFNTGIGQHILKNPLIINSIIDKAALRPTDVVLEVGPGTGNMTVKLLEKAKKVVACELDPRLVAELHKRVQGTPVASKLQVLVGDVLKTDLPFFDTCVANLPYQISSPFVFKLLLHRPFFRCAILMFQREFALRLVAKPGDKLYCRLSINTQLLARVDHLMKVGKNNFRPPPKVESSVVRIEPKNPPPPINFQEWDGLVRITFVRKNKTLSAAFKSSAVQQLLEKNYRIHCSVHNIIIPEDFSIADKIQQILTSTGFSDKRARSMDIDDFIRLLHGFNAEGIHFS
notes: also called His-DIM1; source: E. coli BL21 Codon Plus, purified (Ni-NTA, desalted); not shown: His6, N-terminal, kept

Columns and labels:
[1] = target: T1, His-tagged NOB1; assay: pull-down; 50 ng GST-tagged bait with equal amounts of His-tagged or untagged prey; 50 mM Tris-HCl pH 8.0, 10% glycerol, 300 mM NaCl, 5 mM MgCl2, 0.1% Tween20; 1 h at 4°C; glutathione sepharose; western blotting; conditions: both partners purified
[2] = target: T2, GST-tagged RIO2 (human, UniProt Q9BVS4-1 1-552); assay: as above; conditions: both partners purified
T2 construct: also called GST-RIO2; source: E. coli BL21 Codon Plus, purified (glutathione sepharose, desalted); not shown: GST, N-terminal, kept
T2 sequence (Q9BVS4 whole entry): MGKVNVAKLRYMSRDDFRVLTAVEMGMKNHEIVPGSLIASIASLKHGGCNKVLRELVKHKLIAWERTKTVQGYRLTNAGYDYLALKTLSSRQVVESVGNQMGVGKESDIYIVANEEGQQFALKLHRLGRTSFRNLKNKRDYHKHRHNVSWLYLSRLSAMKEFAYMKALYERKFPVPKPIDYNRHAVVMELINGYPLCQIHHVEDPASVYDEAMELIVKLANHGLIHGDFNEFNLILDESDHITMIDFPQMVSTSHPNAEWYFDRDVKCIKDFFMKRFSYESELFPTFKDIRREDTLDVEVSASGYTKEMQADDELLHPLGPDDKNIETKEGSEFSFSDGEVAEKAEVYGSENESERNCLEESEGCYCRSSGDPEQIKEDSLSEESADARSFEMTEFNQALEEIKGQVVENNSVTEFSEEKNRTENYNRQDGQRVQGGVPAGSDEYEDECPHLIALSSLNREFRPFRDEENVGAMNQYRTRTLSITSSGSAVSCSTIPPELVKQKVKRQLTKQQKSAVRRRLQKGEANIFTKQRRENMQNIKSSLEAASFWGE

Binder | binding result [1] | binding result [2]
B1 | binds | 
B2 |  | binds
